Measured values as given in publication PMC8666677 (The Journal of Biological Chemistry, 2021).
No end group written: not given here. fl = not defined here

T1: ClpS adapter (E. coli, UniProt P0A8Q6 1-106)
T1 sequence: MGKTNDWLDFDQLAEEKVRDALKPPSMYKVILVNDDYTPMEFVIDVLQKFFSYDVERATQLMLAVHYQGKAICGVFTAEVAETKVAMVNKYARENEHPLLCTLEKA

B1: LLYVQRDSKEC-fl fluorescent N-degron peptide (peptide)
peptide: LLYVQRDSKEC-fl
modifications: reading uncertain; also: printed as LLYVQRDSKEC-fl

Experiments:
[1] = target: ^D1-3YAClpA^xl (cross-linked ClpA pseudohexamer with alternating WT and defective D1 pore loops) (E. coli) (UniProt P0ABH9)
ClpS adapter = target: T1, ClpS adapter; assay: fluorescence polarisation

Molecule | KM of ClpAP degradation of ^UFtitin-ssrA, against ClpA^xl [1] [fold] | binding result (ClpS adapter)
^UFtitin-ssrA (ssrA-tagged titin^I27 domain unfolded by chemical modification of its two partially buried cysteines) (domain or fragment) | 3 | 
B1 |  | binds
